Values of other authors, collected in article PMC4884208.

Columns and labels:
Assay in all cases: UV-vis
Tyr117 = test system: Tyr117
Tyr113 = test system: Tyr113
Tyr28 = test system: Tyr28
Tyr73 = test system: Tyr73
Tyr25 = test system: Tyr25
Tyr22 = test system: Tyr22
Tyr52 = test system: Tyr52
Tyr75 = test system: Tyr75
Tyr36 = Tyr36 (UniProt position 55, FHTSGYDTQAI); conditions: 25.0 C, 0.5 M Gdn-HCl
Tyr103 = Tyr103 (UniProt position 122, KVGINYWLAHK); conditions: 25.0 C, 0.5 M Gdn-HCl
Tyr50 = Tyr50 (UniProt position 69, NDSTEYGLFQI); conditions: 25.0 C, 0.5 M Gdn-HCl
Tyr18 = Tyr18 (UniProt position 37, KDLKGYGGVSL); conditions: 25.0 C, 0.5 M Gdn-HCl

Substance	pKa (Tyr117)	pKa (Tyr113)	pKa (Tyr28)	pKa (Tyr73)	pKa (Tyr25)	pKa (Tyr22)	pKa (Tyr52)	pKa (Tyr75)	pKa (Tyr36; alkaline-denatured (D) state)	pKa (Tyr36; native (N) state)	pKa (Tyr103; alkaline-denatured (D) state)	pKa (Tyr103; native (N) state)	pKa (Tyr50; alkaline-denatured (D) state)	pKa (Tyr50; native (N) state)	pKa (Tyr18; alkaline-denatured (D) state)	pKa (Tyr18; native (N) state)
Vipoxin neurotoxic phospholipase A2 (basic PLA2 subunit of vipoxin) (Vipera ammodytes meridionalis (inferred; organism not stated in the article))	10.45	12.17	12.17	13.23	13.23	10.45	12.17	10.45								
alpha-lactalbumin (Bos taurus)									10.3	11.8	10.3	10.5	10.3	12.7	10.3	11.8
